Measured values: patent US20070092518A1 (published 2007)
Changes are numbered by the printed parent chain.

B1: SEQ ID NO 135 (Fab, V domains shown)
VH: EVQLVESGGGLVQPGGSLRLSCAASQSIFSNHWMNWVRQAPGKGLEWIGEIRSKSSNSATSYAESVKGRFIISRDGNKTDLYLEMNSLKTEDTAEYYCAQNYYGSTYDYWGQGTLVTVS
VL: EIVLTQSPDFQSVTPKEKVTITCRASQFVGSSIHWYQQKPDQSPKLLIKYASESMSGVPSRFSGSGSGTDFTFTISSLEAEDAATYYCQQSHSWPFTFGPGTKVDIK
notes: Fab, E. coli lysate
B2: SEQ ID NO 181 (Fab, V domains shown)
VH: B1 VH with Q26G, S27F, I28T, N57Y, S61H, G76D, T79N, D80S, Y82T, Y107P
VL: B1 VL
notes: Fab, E. coli lysate
B3: SEQ ID NO 175 (Fab, V domains shown)
VH: B1 VH with A23R, Q26G, S27F, S56I, S58G, S61H, G76D, D80S, Y82T
VL: B1 VL
notes: Fab, E. coli lysate
B4: SEQ ID NO 138 (Fab, V domains shown)
VH: B1 VH with V5T, A23R, Q26G, S27F, W33Y, T79N, Q100R, Y107P
VL: B1 VL
notes: Fab, E. coli lysate
B5: SEQ ID NO 179 (Fab, V domains shown)
VH: EVQLTESGGGLVQPGGSLRLSCAASQFTFSNHWMNWVRQAPGKGLEWIGEIRSKSSNGATHYAESVKGRFIISRDDNGTSLTLEMNSLKTEDTAEYYCARNYYGSTPDYWGQGTLVTVS
VL: B1 VL
notes: Fab, E. coli lysate
B6: SEQ ID NO 171 (Fab, V domains shown)
VH: B1 VH with I28T, W33Y, S56I, N57Y, G76D, K78G, T79N, D80S, Y107P
VL: B1 VL
notes: Fab, E. coli lysate
B7: SEQ ID NO 159 (Fab, V domains shown)
VH: B1 VH with Q26G, S27F, S56I, N57Y, K78G, D80S, Y82T, Q100R
VL: B1 VL
notes: Fab, E. coli lysate
B8: SEQ ID NO 141 (Fab, V domains shown)
VH: B1 VH with Q26G, I28T, S56I, N57Y, S58G, T79N, D80S, Q100R
VL: B1 VL
notes: Fab, E. coli lysate
B9: SEQ ID NO 162 (Fab, V domains shown)
VH: B1 VH with S27F, W33Y, N57Y, S61H, T79N, Y82T, Q100R
VL: B1 VL
notes: Fab, E. coli lysate
B10: SEQ ID NO 137 (Fab, V domains shown)
VH: B1 VH with Q26G, I28T, W33Y, N57Y, K78G, Y82T
VL: B1 VL
notes: Fab, E. coli lysate
B11: SEQ ID NO 156 (Fab, V domains shown)
VH: B1 VH with V5T, I28T, S56I, G76D, T79N, Y82T, Q100R
VL: B1 VL
notes: Fab, E. coli lysate
B12: SEQ ID NO 144 (Fab, V domains shown)
VH: B1 VH with A23R, Q26G, W33Y, T79N
VL: B1 VL
notes: Fab, E. coli lysate
B13: SEQ ID NO 174 (Fab, V domains shown)
VH: B1 VH with A23R, Q26G, I28T, W33Y, N57Y, G76D, Y82T, Y107P
VL: B1 VL
notes: Fab, E. coli lysate
B14: SEQ ID NO 164 (Fab, V domains shown)
VH: B1 VH with V5T, Q26G, W33Y, S56I, N57Y, S61H, K78G, Q100R
VL: B1 VL
notes: Fab, E. coli lysate
B15: SEQ ID NO 168 (Fab, V domains shown)
VH: B5 VH with F27S, S56I, H61S, D76G, G78K, T82Y
VL: B1 VL
notes: Fab, E. coli lysate
B16: SEQ ID NO 170 (Fab, V domains shown)
VH: B1 VH with Q26G, I28T, S56I, S61H, G76D, K78G, D80S
VL: B1 VL
notes: Fab, E. coli lysate
B17: SEQ ID NO 145 (Fab, V domains shown)
VH: B1 VH with V5T, A23R, I28T, W33Y, S58G, G76D, K78G, T79N
VL: B1 VL
notes: Fab, E. coli lysate
B18: SEQ ID NO 155 (Fab, V domains shown)
VH: B1 VH with V5T, I28T, N57Y, G76D, T79N, D80S, Q100R
VL: B1 VL
notes: Fab, E. coli lysate
B19: SEQ ID NO 165 (Fab, V domains shown)
VH: B1 VH with S27F, I28T, W33Y, N57Y, S58G, S61H
VL: B1 VL
notes: Fab, E. coli lysate
B20: SEQ ID NO 188 (Fab, V domains shown)
VH: B1 VH with Q26G, S27F, W33Y, S56I, N57Y, S58G, G76D, T79N
VL: B1 VL
notes: Fab, E. coli lysate
B21: SEQ ID NO 178 (Fab, V domains shown)
VH: B5 VH with T5V, Q26G, W33Y, S56I, N57Y, G58S, D76G, T79N
VL: B1 VL
notes: Fab, E. coli lysate
B22: SEQ ID NO 167 (Fab, V domains shown)
VH: B5 VH with T5V, N57Y, G78K, S80D, P107Y
VL: B1 VL
notes: Fab, E. coli lysate
B23: SEQ ID NO 180 (Fab, V domains shown)
VH: B5 VH with T5V, A23R, Q26G, T28I, W33Y, G58S, G78K, R100Q
VL: B1 VL
notes: Fab, E. coli lysate
B24: SEQ ID NO 166 (Fab, V domains shown)
VH: B1 VH with S27F, W33Y, S56I, Q100R
VL: B1 VL
notes: Fab, E. coli lysate
B25: SEQ ID NO 136 (Fab, V domains shown)
VH: B5 VH with F27S, T28I, S56I, N57Y, G58S, T82Y, R100Q
VL: B1 VL
notes: Fab, E. coli lysate
B26: SEQ ID NO 148 (Fab, V domains shown)
VH: B1 VH with A23R, S27F, W33Y, S56I, N57Y, S58G, K78G, T79N
VL: B1 VL
notes: Fab, E. coli lysate
B27: SEQ ID NO 184 (Fab, V domains shown)
VH: B1 VH with S27F, W33Y, S56I, S61H, K78G, Q100R
VL: B1 VL
notes: Fab, E. coli lysate
B28: SEQ ID NO 151 (Fab, V domains shown)
VH: B5 VH with T5V, T28I, W33Y, S56I, N57Y, D76G, T79N
VL: B1 VL
notes: Fab, E. coli lysate
B29: SEQ ID NO 146 (Fab, V domains shown)
VH: B5 VH with T5V, Q26G, T28I, S56I, D76G, G78K, T79N, S80D
VL: B1 VL
notes: Fab, E. coli lysate
B30: SEQ ID NO 187 (Fab, V domains shown)
VH: B1 VH with V5T, Q26G, S27F, I28T, W33Y, N57Y, S58G, K78G
VL: B1 VL
notes: Fab, E. coli lysate
B31: SEQ ID NO 186 (Fab, V domains shown)
VH: B5 VH with Q26G, F27S, W33Y, S56I, N57Y, G58S, H61S, T79N
VL: B1 VL
notes: Fab, E. coli lysate
B32: SEQ ID NO 161 (Fab, V domains shown)
VH: B5 VH with A23R, Q26G, T28I, S56I, N57Y, G58S, T79N, S80D, T82Y, R100Q
VL: B1 VL
notes: Fab, E. coli lysate
B33: SEQ ID NO 177 (Fab, V domains shown)
VH: B1 VH with V5T, I28T, W33Y, S58G, G76D, T79N, Y82T
VL: B1 VL
notes: Fab, E. coli lysate
B34: SEQ ID NO 158 (Fab, V domains shown)
VH: B5 VH with T5V, A23R, T28I, S56I, N57Y, G78K, T79N, S80D, T82Y
VL: B1 VL
notes: Fab, E. coli lysate
B35: SEQ ID NO 157 (Fab, V domains shown)
VH: B5 VH with A23R, Q26G, F27S, T28I, S56I, N57Y, G58S, H61S, R100Q
VL: B1 VL
notes: Fab, E. coli lysate
B36: SEQ ID NO 172 (Fab, V domains shown)
VH: B5 VH with Q26G, S56I, N57Y, D76G, G78K, T79N, S80D, R100Q
VL: B1 VL
notes: Fab, E. coli lysate
B37: SEQ ID NO 140 (Fab, V domains shown)
VH: B5 VH with Q26G, F27S, W33Y, G58S, T82Y, P107Y
VL: B1 VL
notes: Fab, E. coli lysate
B38: SEQ ID NO 169 (Fab, V domains shown)
VH: B5 VH with Q26G, T28I, W33Y, S56I, H61S, T79N, S80D, R100Q
VL: B1 VL
notes: Fab, E. coli lysate
B39: SEQ ID NO 163 (Fab, V domains shown)
VH: B1 VH with S27F, S56I, N57Y, S61H, G76D, Y82T, Y107P
VL: B1 VL
notes: Fab, E. coli lysate
B40: SEQ ID NO 182 (Fab, V domains shown)
VH: B5 VH with Q26G, W33Y, S56I, N57Y, G58S, D76G, S80D, T82Y, R100Q
VL: B1 VL
notes: Fab, E. coli lysate
B41: SEQ ID NO 149 (Fab, V domains shown)
VH: B5 VH with A23R, T28I, W33Y, N57Y, G58S, T79N, T82Y, R100Q, P107Y
VL: B1 VL
notes: Fab, E. coli lysate
B42: SEQ ID NO 150 (Fab, V domains shown)
VH: B5 VH with T5V, W33Y, S56I, H61S, S80D, T82Y, P107Y
VL: B1 VL
notes: Fab, E. coli lysate

Target: T1, human tumor necrosis factor-α (rHuTNF-alpha, Biosource) (human, UniProt P01375 77-233)
T1 construct: Bought recombinant protein coated on ELISA plates; The TNFα of the Biacore assay is not described further; also called TNFα; human TNFα
Assay: solid-phase ELISA, Fab lysate on coated rHuTNF-alpha
Outline: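 E. coli lysates expressing His-tagged Fab (pTrcHis2A) were incubated 2 h at RT on wells coated with 1 μg/ml rHuTNF-α and blocked with BSA. Bound Fab was detected with biotinylated anti-human kappa plus penta-His conjugates, then streptavidin-POD and TMB. Absorbance was read at 450 nm.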

T1 sequence (P01375 77-233 limits assumed): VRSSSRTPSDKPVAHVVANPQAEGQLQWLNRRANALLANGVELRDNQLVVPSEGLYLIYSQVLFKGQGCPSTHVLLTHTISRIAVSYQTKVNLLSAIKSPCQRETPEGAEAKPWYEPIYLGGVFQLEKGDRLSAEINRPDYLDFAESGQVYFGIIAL

| Binder | binding result |
| --- | --- |
| B1 | binds |
| B2 | binds |
| B3 | binds |
| B4 | binds |
| B5 | binds |
| B6 | binds |
| B7 | binds |
| B8 | binds |
| B9 | binds |
| B10 | binds |
| B11 | binds |
| B12 | binds |
| B13 | binds |
| B14 | binds |
| B15 | binds |
| B16 | binds |
| B17 | binds |
| B18 | binds |
| B19 | binds |
| B20 | binds |
| B21 | binds |

| Binder | binding result |
| --- | --- |
| B22 | binds |
| B23 | binds |
| B24 | binds |
| B25 | binds |
| B26 | binds |
| B27 | binds |
| B28 | binds |
| B29 | binds |
| B30 | binds |
| B31 | binds |
| B32 | binds |
| B33 | binds |
| B34 | binds |
| B35 | binds |
| B36 | binds |
| B37 | binds |
| B38 | binds |
| B39 | binds |
| B40 | binds |
| B41 | binds |
| B42 | binds |
